This is an account of results in patent publication US20180360907A1.

The target in the assay is CCR5 on human monocytes (human) (UniProt P51681). Briefly: cell-based or functional assay.

For the substance “human CCL4 (MIP-1β) (from UniProt P13236 24-92) (ligand)”, the chemotactic index of human monocytes, without RAP-103 (times over control) was determined as 2.
